Data as given in patent US20030180282A1, “Method of treatment of thrombotic events” (priority 2002, published 2003).

Key:
[1] = "accelerated" regimen, GUSTO trial; cited from earlier work
[2] = test system: platelets; experiment: PFA-100 platelet function analyzer, closure time; format: cell-based, human; conditions: TNK 12 μg/mL, t-PA 4 μg/mL
Experimental: Blood samples for the in vitro study were obtained from 9 healthy volunteers. None of the subjects smoked or had hypertension, diabetes, or an abnormal hematocrit. None had received aspirin or any other antiplatelet drugs. All subjects underwent blood sampling after at least 30 minutes of rest and 2 or more hours of fasting. Blood was drawn from an antecubital vein between 8 am and 10 am in order to avoid any diurnal influence. A 21-gauge butterfly needle was used to draw blood into a tube containing 3.8% sodium citrate (1:9 volume); the first 1.5 mL of free running blood was discarded. One tube was kept as an internal control. A second tube was incubated with tenecteplase (TNK) for 30 minutes at room temperature in order to achieve a final concentration of 12 μg/mL. The third tube was similarly incubated with alteplase (t-PA) to achieve a concentration of 4 μg/mL. The concentrations of TNK and t-PA that were chosen approximated conventional plasma levels observed in patients receiving TNK and t-PA bolus (30 mg, and 15 mg, respectively; data on file, Genentech, Inc., South San Francisco, Calif.). Fresh solutions of TNK and t-PA were prepared in Dulbecco's phosphate buffered saline (DPBS) ex tempore on the morning of the platelet studies.
The PFA-100™ (Dade Behring, Deerfield, Ill.) is a high shear-inducing platelet function analyzer that simulates primary hemostasis after injury to a small vessel under flow conditions (see, e.g. Kundu, S. K. et al. (1996) Clin. Appl. Thromb. Hemost. 2:241-249). The device provides a constant negative pressure that aspirates a whole blood-citrate mixture, which comes into contact with a collagen-coated membrane and then passes through an aperture. The time required to obtain occlusion of the aperture is digitally recorded and is a measure of shear-induced platelet aggregation.
For all comparisons, statistical analyses were done by using repeated measures ANOVA. […] Normally distributed data were expressed as mean±SE, and skewed data as median (range). […]

[3] = test system: platelets; experiment: flow cytometry of platelet surface receptor expression in AMI patients during first 24 hours after r-PA or t-PA; format: in vivo, human
Description: Twenty-three consecutive patients admitted to the emergency rooms of St. Agnes Hospital, or the Union Memorial Hospital between July and December of 1996 with a diagnosis of acute myocardial infarction were included. All patients were enrolled in the randomized trial of Reteplase (r-PA) versus accelerated Alteplase (t-PA) for the treatment of acute myocardial infarction, (GUSTO-III trial).
Blood samples for PA, and for flow cytometric studies were taken at prespecified intervals as follows: in the emergency room immediately before administration of the thrombolytic therapy and then in the coronary care unit at 3 hours, 6 hours, 12 hours, and finally at 24 hours after initiation of the r-PA or t-PA therapy.
Thirteen patients randomized to r-PA received a double bolus, 10+10 MU thirty minutes apart. Ten patients received t-PA in the accelerated regimen as a 15 mg bolus, then 0.75 mg/kg over 30 minutes, and then 0.50 mg/kg over 60 minutes. During the baseline sampling every patient had received 325 mg of aspirin and each day thereafter, at least 5,000 U of intravenous heparin. Following the administration of thrombolytic therapy all patients received a continuous infusion of heparin for the first 24 hours following thrombolysis as recommended in the GUSTO-III protocol.
The schedule of blood drawing, sample preparation and processing were critical issues of the study design, and were monitored by an independent observer. The actual timing of blood collection for the baseline sample was 9.5±1.4 minutes before the start of thrombolytic therapy; 174.6±21.8 minutes for the 3 hours sample; 371.1±24.2 minutes for 6 hours sample; 709.4±17.8 minutes for 12 hours sample; and 1402.9±18.8 minutes for 24 hours sample. Samples were processed within one hour after blood drawing. […] The reasons for early termination were as follows: patient transfer for emergency coronary angioplasty (3 patients), and inability to obtain blood sample (1 patient). Twenty three baseline samples; twenty two samples collected at 3 hours; twenty samples collected at 6 hours; twenty samples collected at 12 hours; and nineteen samples collected at 24 hours were included in the study analysis.
For flow cytometric analysis, venous blood (8 ml) was collected in a plastic tube containing 2 ml of acid-citrate-dextrose (ACD) (7.3 g citric acid, 22.0 g sodium citrate ×2H2O and 24.5 glucose in 1000 ml distilled water) and mixed well. The blood-ACD mixture was centrifuged at 1000 r.p.m. for 10 minutes at room temperature. The upper ⅔ of the platelet-rich plasma (PRP) was then collected and adjusted to pH=6.5 by adding ACD. The PRP was then centrifuged at 3000 r.p.m. for 10 minutes. The supernatant was removed and the platelet pellet was gently resuspended in 4 cc of the washing buffer (10 mM Tris/HCl, 0.15 M NaCl, 20 mM EDTA, pH=7.4). Platelets were washed 4 times in the washing buffer, and an additional four times in TBS (10 mM Tris, 0.15 M NaCl, pH=7.4). All cells were then divided into ten plastic capped tubes. Nine portions of washed platelets were incubated with 5 μl fluorescein isothiocyanate (FITC)-conjugated antibodies in the dark at +4° C. for 30 minutes, and one part remained unstained and served as a negative control. Surface antigen expression was measured with monoclonal murine anti-human antibodies: CD9 (p24); CD41a (IIb/IIIa, (IIb(3); CD42b (Ib); CD61(IIIa) (DAKO Corporation, Carpinteria Calif.); CD49b (VLA-2, or (2(1); CD62p (P selectin); CD31 (PECAM-1); CD 41b (IIb); and CD51/CD61 (vitronectin receptor, (v(3) (PharMingen, San Diego Calif.). After incubation, the cells were washed three times with TBS and resuspended in 0.25 ml of 1% paraformaldehyde. Samples were stored in the refrigerator at +4° C., and analyzed on a Becton Dickinson FACScan™ flow cytometry with laser output of 15 mw, excitation at 488 mm, and emission detection at 530±30 nm. […]

B1: t-PA: recombinant tissue plasminogen activator, thrombolytic agent (Genentech) (protein, UniProt P00750 36-562, looked up)
Tissue-type plasminogen …: SYQVICRDEKTQMIYQQHQSWLRPVLRSNRVEYCWCNSGRAQCHSVPVKSCSEPRCFNGGTCQQALYFSDFVCQCPEGFAGKCCEIDTRATCYEDQGISYRGTWSTAESGAECTNWNSSALAQKPYSGRRPDAIRLGLGNHNYCRNPDRDSKPWCYVFKAGKYSSEFCSTPACSEGNSDCYFGNGSAYRGTHSLTESGASCLPWNSMILIGKVYTAQNPSAQALGLGKHNYCRNPDGDAKPWCHVLKNRRLTWEYCDVPSCSTCGLRQYSQPQFRIKGGLFADIASHPWQAAIFAKHRRSPGERFLCGGILISSCWILSAAHCFQERFPPHHLTVILGRTYRVVPGEEEQKFEVEKYIVHKEFDDDTYDNDIALLQLKSDSSRCAQESSVVRTVCLPPADLQLPDWTECELSGYGKHEALSPFYSERLKEAHVRLYPSSRCTSQHLLNRTVTDNMLCAGDTRSGGPQANLHDACQGDSGGPLVCLNDGRMTLVGIISWGLGCGQKDVPGVYTKVTNYLDWIRDNMRP
benefit in mortality reduction [1]: further benefit
closure time (PFA-100) compared with DPBS [2]: prolongation
glycoprotein IIIa expression compared to baseline ([3]; 12 hours): not after t-PA therapy
glycoprotein Ib expression compared to baseline ([3]; 12 hours): significant inhibition
platelet vitronectin receptor expression ([3]; 12 hours after thrombolysis): significant increase
glycoprotein IIIa expression compared to baseline ([3]; 24 hours): not after t-PA therapy
glycoprotein IIb/IIIa expression compared to baseline ([3]; 24 hours): elevated
p24 (CD 9) expression compared to baseline ([3]; 24 hours): higher
platelet vitronectin receptor expression ([3]; 24 hours after thrombolysis): trended toward the baseline
P-selectin expression, early change ([3]; early): early significant decrease
p24 (CD 9) expression compared to baseline ([3]; early time points): no early receptor inhibition
P-selectin expression, later change ([3]; following the early decrease): significant increase
